In patent US20240245798A1 (TUBULIS, published 2024):

What was measured:
[1] = molecular target: T1, recombinant hexameric human C1q complement protein (human, UniProt P02745 23-245; P02746 28-253; P02747 29-245, limits assumed); assay: HTRF human C1q binding assay (Cisbio)
T1 construct: Described only as recombinant hexameric C1q; also called complement factor C1q

[2] = molecular target: T2, purified recombinant human 5T4 antigen, extracellular domain as 6x-Histidine fusion protein (glycosylated) (human, UniProt Q13641 32-355); assay: ELISA on immobilized recombinant human 5T4 ECD-6xHis; apparent KD, one-site specific binding fit
T2 construct: Expressed in Expi-HEK293; also called glycosylated 5T4; recombinant immobilized human 5T4 antigen; not shown: 6x-Histidine tag
T2 sequence: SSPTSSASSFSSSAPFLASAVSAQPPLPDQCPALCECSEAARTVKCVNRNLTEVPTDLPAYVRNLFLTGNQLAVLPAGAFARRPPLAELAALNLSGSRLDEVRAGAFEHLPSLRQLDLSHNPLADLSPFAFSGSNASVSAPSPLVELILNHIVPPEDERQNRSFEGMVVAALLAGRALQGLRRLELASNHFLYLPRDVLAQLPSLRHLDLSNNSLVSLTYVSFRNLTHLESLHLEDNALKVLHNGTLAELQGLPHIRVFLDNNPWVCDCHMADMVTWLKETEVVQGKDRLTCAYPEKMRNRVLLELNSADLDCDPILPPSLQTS

[3] = molecular target: T3, purified recombinant human 5T4 antigen, extracellular domain as 6x-Histidine fusion protein, de-glycosylated … (human, UniProt Q13641 32-355, de-glycosylated with PNGase F over night at 37 C); assay: ELISA on immobilized PNGase F-treated recombinant human 5T4 ECD-6xHis; apparent KD, one-site specific binding fit
T3 construct: Same construct as m5 after PNGase F treatment; also called de-glycosylated 5T4; not shown: 6x-Histidine tag
T3 sequence: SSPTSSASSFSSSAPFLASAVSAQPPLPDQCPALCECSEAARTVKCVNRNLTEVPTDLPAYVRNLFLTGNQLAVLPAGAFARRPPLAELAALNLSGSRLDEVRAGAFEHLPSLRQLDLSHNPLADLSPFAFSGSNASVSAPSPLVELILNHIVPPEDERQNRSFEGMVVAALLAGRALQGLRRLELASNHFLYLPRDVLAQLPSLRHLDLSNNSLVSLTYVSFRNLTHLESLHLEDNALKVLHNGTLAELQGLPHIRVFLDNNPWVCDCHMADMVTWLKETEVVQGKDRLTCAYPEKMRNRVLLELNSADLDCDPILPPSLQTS

[4] = molecular target: T4, human 5T4 (trophoblast glycoprotein, TPBG), endogenously expressed on tumor cells (human, UniProt Q13641 32-420); assay: flow cytometry on MDA-MB-468 cells endogenously expressing human 5T4, 0.002 to 200 nM, one-site specific binding fit
T4 construct: the protein stood on cell lines that express it endogenously; also called endogenously expressed human 5T4; MDA-MB-468 cells
T4 sequence: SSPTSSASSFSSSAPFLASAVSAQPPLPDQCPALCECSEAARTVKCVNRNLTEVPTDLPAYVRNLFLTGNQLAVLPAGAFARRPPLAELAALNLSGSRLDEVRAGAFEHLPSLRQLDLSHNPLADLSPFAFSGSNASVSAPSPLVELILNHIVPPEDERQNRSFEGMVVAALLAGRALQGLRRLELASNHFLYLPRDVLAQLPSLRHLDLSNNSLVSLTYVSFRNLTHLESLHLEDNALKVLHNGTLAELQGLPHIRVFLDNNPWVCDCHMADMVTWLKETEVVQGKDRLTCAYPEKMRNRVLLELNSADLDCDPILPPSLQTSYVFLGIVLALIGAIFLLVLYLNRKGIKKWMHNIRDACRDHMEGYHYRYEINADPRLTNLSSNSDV

[5] = molecular target: T5, human full-length 5T4-(GGGGS)-mCherry, transiently expressed on HEK293 cells (human, UniProt Q13641 32-420); assay: flow cytometry on mCherry-positive HEK293 cells transiently expressing human full-length 5T4-mCherry, one-site specific binding fit
T5 construct: also called human full-length 5T4-mCherry; not shown: mCherry fluorescent protein
T5 sequence: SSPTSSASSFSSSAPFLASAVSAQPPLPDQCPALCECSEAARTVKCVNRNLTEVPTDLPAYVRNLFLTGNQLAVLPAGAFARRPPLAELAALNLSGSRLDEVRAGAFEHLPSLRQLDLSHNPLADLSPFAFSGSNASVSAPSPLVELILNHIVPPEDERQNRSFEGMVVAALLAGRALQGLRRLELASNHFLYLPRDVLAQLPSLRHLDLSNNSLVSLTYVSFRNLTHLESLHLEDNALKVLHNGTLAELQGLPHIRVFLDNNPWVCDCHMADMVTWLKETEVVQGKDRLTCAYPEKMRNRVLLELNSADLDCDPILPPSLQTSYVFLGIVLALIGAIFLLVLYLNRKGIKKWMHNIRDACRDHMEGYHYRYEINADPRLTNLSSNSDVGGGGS

[6] = molecular target: T6, white-tufted-ear marmoset full-length 5T4-(GGGGS)-mCherry, transiently expressed on HEK293 cells (white-tufted-ear marmoset (Callithrix …, UniProt Q13641 32-420 (human entry))); assay: flow cytometry on mCherry-positive HEK293 cells transiently expressing marmoset full-length 5T4-mCherry, one-site specific binding fit
T6 construct: also called marmoset full-length 5T4-mCherry; marmoset 5T4; not shown: mCherry fluorescent protein
T6 chain: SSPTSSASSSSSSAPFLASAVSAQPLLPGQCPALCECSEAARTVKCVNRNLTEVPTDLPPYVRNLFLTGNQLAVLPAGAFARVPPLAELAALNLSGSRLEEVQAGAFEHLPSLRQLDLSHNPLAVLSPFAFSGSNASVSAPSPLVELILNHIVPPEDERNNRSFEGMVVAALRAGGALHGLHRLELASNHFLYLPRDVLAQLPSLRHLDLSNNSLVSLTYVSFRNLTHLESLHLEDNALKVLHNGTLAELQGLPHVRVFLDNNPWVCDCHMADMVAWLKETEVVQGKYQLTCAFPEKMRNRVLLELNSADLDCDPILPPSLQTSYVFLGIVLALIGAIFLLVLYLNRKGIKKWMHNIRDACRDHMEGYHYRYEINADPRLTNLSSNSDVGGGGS

T1 sequence (P02745 23-245 limits assumed, chain 1 of 3): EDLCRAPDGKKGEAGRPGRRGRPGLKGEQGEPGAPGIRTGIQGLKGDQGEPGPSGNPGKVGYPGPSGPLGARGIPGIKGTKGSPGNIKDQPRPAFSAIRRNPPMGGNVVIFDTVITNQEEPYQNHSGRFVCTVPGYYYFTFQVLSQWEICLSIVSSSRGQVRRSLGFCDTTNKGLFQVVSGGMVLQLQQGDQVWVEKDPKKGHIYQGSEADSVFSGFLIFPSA
T1 sequence (P02746 28-253 limits assumed, chain 2 of 3): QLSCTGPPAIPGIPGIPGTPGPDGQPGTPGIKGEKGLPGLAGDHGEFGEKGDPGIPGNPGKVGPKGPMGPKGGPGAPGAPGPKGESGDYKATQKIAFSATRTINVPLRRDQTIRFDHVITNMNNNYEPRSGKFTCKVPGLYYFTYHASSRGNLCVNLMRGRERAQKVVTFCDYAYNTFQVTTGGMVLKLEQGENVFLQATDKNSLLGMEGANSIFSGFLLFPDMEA
T1 sequence (P02747 29-245 limits assumed, chain 3 of 3): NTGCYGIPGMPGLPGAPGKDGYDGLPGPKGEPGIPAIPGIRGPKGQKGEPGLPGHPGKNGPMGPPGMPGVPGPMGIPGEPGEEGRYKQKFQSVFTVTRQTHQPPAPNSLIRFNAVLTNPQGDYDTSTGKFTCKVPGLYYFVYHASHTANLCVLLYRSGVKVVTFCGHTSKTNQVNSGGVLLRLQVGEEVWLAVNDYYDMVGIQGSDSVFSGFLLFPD

B1: anti-TPBG antibody HC-LALA (LALA-silenced anti-TPBG antibody) (antibody)
heavy: not shown
light: EIVMTQSPDSLAVSLGERATINCKASQSVSNDVAWYQQKPGQPPKLLIYYTSSRYAGVPDRFSGSGSGTDFTLTISSLQAEDVAVYYCQQDYNSPPTFGGGTKLEIKRTVAAPSVFIFPPSDEQLKSGTASVVCLLNNFYPREAKVQWKVDNALQSGNSQESVTEQDSKDSTYSLSSTLTLSKADYEKHKVYACEVTHQGLSSPVTKSFNRGEC
notes: also called anti-TBPG antibody; anti-TPBG mAb HC-LALA
binding result [1]: no binding (tested: serial dilutions 280 nM-11.6 nM) | Kd [2]: 0.1 nM | Kd [3]: 0.16 nM | Kd [4]: 0.247 nM | Kd [5]: 2.15 nM | Kd [6]: 5.46 nM
